Data: article PMC9531947, “Targeting A-kinase anchoring protein 12 phosphorylation in hepatic stellate cells regulates liver injury and fibrosis in mouse models” (eLife, 2022)

Target: T1, AKAP12 with its five activation-responsive phospho-sites deleted by CRISPR-directed HDR, human HSCs (human (endogenous locus in primary …, UniProt Q02952-1 1-1782, deletion of the five phospho-sites T675, S676, S678, S687, S688 (PDEL; limits …)
T1 construct: human AKAP12 with the region of the phospho-sites T675, S676, S678, S687, S688 deleted; The transfected cells are a mixture of edited and unedited cells; the co-precipitate with the AKAP12 antibody holds both forms; also called CRISPR-edited AKAP12; PDEL (human); source: in cell extract and fixed cells
Experiment: co-IP; extracts of primary human HSCs (cultured 0, 3 or 6 days; WT or CRISPR-edited HDR cells; negative control or Prkca siRNA A or B); AKAP12-HSP47 co-immunoprecipitation and western blot
Conditions: partners not purified

T1 sequence (Q02952 other isoform, or with tags, fused parts or gaps with the stated changes): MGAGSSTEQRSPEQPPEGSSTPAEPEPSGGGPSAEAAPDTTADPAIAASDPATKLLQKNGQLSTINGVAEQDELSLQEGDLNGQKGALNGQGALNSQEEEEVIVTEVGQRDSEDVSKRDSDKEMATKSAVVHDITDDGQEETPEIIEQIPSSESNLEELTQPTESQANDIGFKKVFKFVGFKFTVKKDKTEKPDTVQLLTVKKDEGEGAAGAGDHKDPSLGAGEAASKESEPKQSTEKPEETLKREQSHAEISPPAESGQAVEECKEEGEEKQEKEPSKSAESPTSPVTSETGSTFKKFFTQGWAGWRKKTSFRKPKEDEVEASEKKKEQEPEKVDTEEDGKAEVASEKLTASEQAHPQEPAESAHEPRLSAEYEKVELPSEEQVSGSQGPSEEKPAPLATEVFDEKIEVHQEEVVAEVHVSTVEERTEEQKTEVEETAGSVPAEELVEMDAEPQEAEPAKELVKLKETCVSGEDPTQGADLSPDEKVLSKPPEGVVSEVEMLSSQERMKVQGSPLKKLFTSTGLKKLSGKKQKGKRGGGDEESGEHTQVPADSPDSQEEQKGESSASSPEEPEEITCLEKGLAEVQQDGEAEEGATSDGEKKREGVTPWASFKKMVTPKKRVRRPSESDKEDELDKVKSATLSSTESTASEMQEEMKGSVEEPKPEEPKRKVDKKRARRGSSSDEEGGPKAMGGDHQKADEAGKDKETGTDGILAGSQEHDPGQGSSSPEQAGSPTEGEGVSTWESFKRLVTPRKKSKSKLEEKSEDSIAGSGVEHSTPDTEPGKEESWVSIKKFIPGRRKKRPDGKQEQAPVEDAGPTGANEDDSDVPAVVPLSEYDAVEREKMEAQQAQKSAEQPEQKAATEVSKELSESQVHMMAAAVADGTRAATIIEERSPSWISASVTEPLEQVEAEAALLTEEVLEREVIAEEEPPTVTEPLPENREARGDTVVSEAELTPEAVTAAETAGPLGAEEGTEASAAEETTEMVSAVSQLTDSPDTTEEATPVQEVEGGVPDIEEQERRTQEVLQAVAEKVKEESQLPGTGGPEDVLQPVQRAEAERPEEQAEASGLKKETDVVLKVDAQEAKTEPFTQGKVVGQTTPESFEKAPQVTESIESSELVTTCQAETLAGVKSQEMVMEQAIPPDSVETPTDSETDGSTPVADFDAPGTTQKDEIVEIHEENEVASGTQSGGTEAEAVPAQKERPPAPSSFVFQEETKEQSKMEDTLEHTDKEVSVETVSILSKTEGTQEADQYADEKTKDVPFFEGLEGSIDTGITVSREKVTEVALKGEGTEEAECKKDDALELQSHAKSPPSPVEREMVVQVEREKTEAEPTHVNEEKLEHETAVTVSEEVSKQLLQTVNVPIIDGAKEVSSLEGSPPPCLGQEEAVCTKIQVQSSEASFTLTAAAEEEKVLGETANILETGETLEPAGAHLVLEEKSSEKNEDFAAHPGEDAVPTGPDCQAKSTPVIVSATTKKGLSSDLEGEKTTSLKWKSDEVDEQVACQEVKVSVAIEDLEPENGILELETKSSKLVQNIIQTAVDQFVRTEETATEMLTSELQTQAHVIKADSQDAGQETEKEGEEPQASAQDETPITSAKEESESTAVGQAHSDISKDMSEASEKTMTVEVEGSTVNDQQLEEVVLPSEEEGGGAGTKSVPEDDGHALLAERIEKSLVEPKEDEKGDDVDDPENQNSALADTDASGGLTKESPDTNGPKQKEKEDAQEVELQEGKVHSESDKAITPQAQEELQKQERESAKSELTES

B1: heat-shock protein 47 (HSP47), human, endogenous (natural protein, UniProt P50454 19-418, looked up)
chain: AEVKKPAAAAAPGTAEKLSPKAATLAERSAGLAFSLYQAMAKDQAVENILVSPVVVASSLGLVSLGGKATTASQAKAVLSAEQLRDEEVHAGLGELLRSLSNSTARNVTWKLGSRLYGPSSVSFADDFVRSSKQHYNCEHSKINFRDKRSALQSINEWAAQTTDGKLPEVTKDVERTDGALLVNAMFFKPHWDEKFHHKMVDNRGFMVTRSYTVGVMMMHRTGLYNYYDDEKEKLQIVEMPLAHKLSSLIILMPHHVEPLERLEKLLTKEQLKIWMGKMQKKAVAISLPKGVVEVTHDLQKHLAGLGLTEAIDKNKADLSRMSGKKDLYLASVFHATAFELDTDGNPFDQDIYGREELRSPKLFYADHPFIFLVRDTQSGSLLFIGRLVRPKGDKMRDEL
notes: heat-shock protein 47 (HSP47), ER-resident collagen chaperone, human, endogenous in primary HSCs and liver tissue; source: endogenous, primary human HSC extracts and fixed cells; human liver tissue array
With B1 the “fold change of the AKAP12-HSP47 co-immunoprecipitate against WT cells” value was 2.5 fold.
